Source: PMC4748275, “SpyRing interrogation: analyzing how enzyme resilience can be achieved with phytase and distinct cyclization chemistries” (Scientific Reports, 2016)

System: O=C(Cc1cccs1)N[C@@H]1C(=O)N2C(C(=O)O)=C(/C=C/c3ccc([N+](=O)[O-])cc3[N+](=O)[O-])CS[C@H]12
Assay: purified protein
Conditions: 50 mM NaH2PO4 pH 7.0, 0.1% BSA, 30 °C, 10-100 μM nitrocefin

Substance: BLA (TEM-1 β-lactamase) (Escherichia coli)
- Km: 120 ± 3 µM
- kcat: 1200 ± 30 s⁻¹
